The test system of data set [1] is biotinyl-Phe-oxazolone. Kind of data set: self-aminoacylation, catalytic enhancement (BFO) (fold over background); higher = more active; k-Seq, kA / k0A0; sequences stand for … in GGGAAUGGAUCCACAUCUACGAAUUC…UUCACUGCAGACUUGACGAAGCUG
In short, it runs like this: (§1)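 Mutagenized RNA pools with a 21-nt variable region (0.43 μM) reacted with each biotinyl-aminoacyl-oxazolone at 2–1250 μM. Reactions ran in 50 μL HEPES/NaCl/KCl/MgCl2/CaCl2 buffer with 5% acetonitrile, pH 6.9–7.0, for 90 minutes at room temperature. Streptavidin-captured RNA was quantified by triplicate qPCR and Illumina sequencing, and per-sequence fraction reacted was fit to a pseudo-first-order model with 1000 bootstraps. Catalytic enhancement is median kA divided by the uncatalyzed rate, the low-activity peak of a bimodal Gaussian fit.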

Data set [2] concerns biotinyl-Ile-oxazolone. Kind of data set: self-aminoacylation, catalytic enhancement (BIO) (fold over background); higher = more active; k-Seq, kA / k0A0; sequences stand for … in GGGAAUGGAUCCACAUCUACGAAUUC…UUCACUGCAGACUUGACGAAGCUG
In short, it runs like this: as §1

In data set [3] the test system is biotinyl-Met-oxazolone. Put plainly: self-aminoacylation, catalytic enhancement (BMO) (fold over background); higher = more active; k-Seq, kA / k0A0; sequences stand for … in GGGAAUGGAUCCACAUCUACGAAUUC…UUCACUGCAGACUUGACGAAGCUG
In short, it runs like this: as §1

Data set [4] has as its system biotinyl-Val-oxazolone. Kind of data set: self-aminoacylation, catalytic enhancement (BVO) (fold over background); higher = more active; k-Seq, kA / k0A0; sequences stand for … in GGGAAUGGAUCCACAUCUACGAAUUC…UUCACUGCAGACUUGACGAAGCUG
In short, it runs like this: as §1

Data set [5] concerns biotinyl-Leu-oxazolone. Put plainly: self-aminoacylation, catalytic enhancement (BLO) (fold over background); higher = more active; k-Seq, kA / k0A0; sequences stand for … in GGGAAUGGAUCCACAUCUACGAAUUC…UUCACUGCAGACUUGACGAAGCUG
The essentials:
as §1

The test system of data set [6] is biotinyl-Trp-oxazolone. Kind of data set: self-aminoacylation, catalytic enhancement (BWO) (fold over background); higher = more active; k-Seq, kA / k0A0; sequences stand for … in GGGAAUGGAUCCACAUCUACGAAUUC…UUCACUGCAGACUUGACGAAGCUG
The essentials:
as §1

Variants at the floor of the assay were thinned out.

As to “CUACUUCGCACAAUCGGUCUG [Fam1A.1 aminoacylation ribozyme variant]”, the self-aminoacylation in data set [1] turned out to be 0.439; in data set [2] it was 0.867; in data set [3], 0.94; in data set [4], 0.961; in data set [5] it was 0.999; in data set [6], 0.591.
Turning to “CUACUUCUAACAAUCGAUCUG [Fam1A.1 aminoacylation ribozyme variant]”, the self-aminoacylation in data set [1] is 0.698; in data set [2], 0.674; in data set [3] it was 0.522; in data set [4], 0.67; in data set [5] it was 0.509; in data set [6], 0.416.
Consider “CUACUUCUAACAAUCGGCCUG [Fam1A.1 aminoacylation ribozyme variant]”, for which the self-aminoacylation in data set [1] amounted to 1.01; in data set [2], 1.09; in data set [3], 0.997; in data set [4], 1.2; in data set [5], 1.31; in data set [6] it was 1.05.
Take “CUACUUCUAACAAUCGGUCUC [Fam1A.1 aminoacylation ribozyme variant]”: the self-aminoacylation stood at 0.799 in data set [1]; 0.686 in data set [2]; 0.634 in data set [3]; 0.664 in data set [4]; 0.572 in data set [5]; 0.571 in data set [6].
As to “CUACUUCUAACAAUCGGUCUU [Fam1A.1 aminoacylation ribozyme variant]”, the self-aminoacylation in data set [1] was 0.801; in data set [2], 0.748; in data set [3], 0.701; in data set [4] it was 0.871; in data set [5], 0.753; in data set [6] it was 0.465.
With “CUACUUCUAACGAUCGGUCUG [Fam1A.1 aminoacylation ribozyme variant]”, the self-aminoacylation was determined as 0.785 in data set [1]; 0.675 in data set [2]; 0.747 in data set [3]; 0.688 in data set [4]; 0.622 in data set [5]; 0.505 in data set [6].
“CUACUUCUAAUAAUCGGUCUG [Fam1A.1 aminoacylation ribozyme variant]”: the self-aminoacylation in data set [1] came to 1.02; in data set [2], 0.776; in data set [3], 0.699; in data set [4] it was 0.792; in data set [5], 0.63; in data set [6] it was 0.774.
Consider “CUACUUGAAACAACCGGUCUG [Fam1A.1 aminoacylation ribozyme variant]”, for which the self-aminoacylation in data set [1] came to 0.529; in data set [2], 1.07; in data set [3], 1.18; in data set [4] it was 1.01; in data set [5] it was 0.805; in data set [6], 1.24.
For the sequence “CUACUUGAAACAAUCCGUCUG [Fam1A.1 aminoacylation ribozyme variant]”, the self-aminoacylation turned out to be 0.462 in data set [1]; 0.813 in data set [2]; 1.03 in data set [3]; 0.836 in data set [4]; 0.759 in data set [5]; 1.44 in data set [6].
“CUACUUGAAACAAUCUGUCUG [Fam1A.1 aminoacylation ribozyme variant]”: the self-aminoacylation was found to be 0.472 in data set [1]; 0.655 in data set [2]; 0.747 in data set [3]; 0.657 in data set [4]; 0.636 in data set [5]; 0.496 in data set [6].
Take “CUACUUGAAUCAAUCGGUCUG [Fam1A.1 aminoacylation ribozyme variant]”: the self-aminoacylation in data set [1] came out at 0.466; in data set [2] it was 0.857; in data set [3], 0.811; in data set [4], 0.782; in data set [5] it was 0.705; in data set [6] it was 0.582.
With “CUACUUGGAACAAUCGGUCUG [Fam1A.1 aminoacylation ribozyme variant]”, the self-aminoacylation in data set [1] came to 0.848; in data set [2], 0.831; in data set [3], 0.904; in data set [4], 0.833; in data set [5] it was 0.788; in data set [6] it was 0.642.
As to “CUACUUUAAACAACCGGUCUG [Fam1A.1 aminoacylation ribozyme variant]”, the self-aminoacylation in data set [1] is 0.725; in data set [2], 0.909; in data set [3] it was 0.996; in data set [4], 0.973; in data set [5] it was 0.978; in data set [6], 1.07.
For the sequence “CUACUUUAAACAAUAGGUCUG [Fam1A.1 aminoacylation ribozyme variant]”, the self-aminoacylation was determined as 0.945 in data set [1]; 0.925 in data set [2]; 0.979 in data set [3]; 0.891 in data set [4]; 0.841 in data set [5]; 0.648 in data set [6].
For “CUACUUUAAACAGUCGGUCUG [Fam1A.1 aminoacylation ribozyme variant]”, the self-aminoacylation was found to be 0.582 in data set [1]; 0.837 in data set [2]; 0.765 in data set [3]; 0.845 in data set [4]; 0.812 in data set [5]; 0.651 in data set [6].
As to “CUACUUUAAAUAAUCGGUCUG [Fam1A.1 aminoacylation ribozyme variant]”, the self-aminoacylation was 1.03 in data set [1]; 0.923 in data set [2]; 0.869 in data set [3]; 0.902 in data set [4]; 0.82 in data set [5]; 0.885 in data set [6].
Take “CUACUUUAUACAAUCGGUCUG [Fam1A.1 aminoacylation ribozyme variant]”: the self-aminoacylation in data set [1] was 0.815; in data set [2] it was 0.857; in data set [3] it was 0.832; in data set [4], 0.882; in data set [5], 0.808; in data set [6], 0.626.
With “CUAGUCCAAACAAUCGGUCUG [Fam1A.1 aminoacylation ribozyme variant]”, the self-aminoacylation in data set [1] was 1.03; in data set [2], 0.963; in data set [3] it was 0.736; in data set [4] it was 0.767; in data set [5], 0.755; in data set [6], 1.01.
As for “CUAGUUCAAACAAGCGGUCUG [Fam1A.1 aminoacylation ribozyme variant]”, the self-aminoacylation in data set [1] was 1.21; in data set [2], 1.2; in data set [3] it was 1.54; in data set [4], 0.93; in data set [5], 1.08; in data set [6], 1.19.
As for “CUAGUUCAAACAAUCGGCCUG [Fam1A.1 aminoacylation ribozyme variant]”, the self-aminoacylation stood at 12.4 in data set [1]; 1.71 in data set [2]; 1.76 in data set [3]; 1.84 in data set [4]; 2.2 in data set [5]; 11.2 in data set [6].
As for “CUAGUUCAAACAAUCGGUCCG [Fam1A.1 aminoacylation ribozyme variant]”, the self-aminoacylation stood at 0.893 in data set [1]; 0.787 in data set [2]; 0.742 in data set [3]; 0.649 in data set [4]; 0.745 in data set [5]; 0.582 in data set [6].
For “CUAGUUCAAACAAUCGGUCUC [Fam1A.1 aminoacylation ribozyme variant]”, the self-aminoacylation in data set [1] was determined as 9.67; in data set [2], 0.896; in data set [3], 0.795; in data set [4] it was 0.863; in data set [5], 1.25; in data set [6], 5.9.
On to “CUAGUUCAAACAAUCGGUCUU [Fam1A.1 aminoacylation ribozyme variant]”, for which the self-aminoacylation was 5.06 in data set [1]; 1.14 in data set [2]; 1.25 in data set [3]; 1.01 in data set [4]; 1.26 in data set [5]; 3.27 in data set [6].
Regarding “CUAGUUCAAACAAUCGGUGUG [Fam1A.1 aminoacylation ribozyme variant]”, the self-aminoacylation was 1.63 in data set [1]; 0.992 in data set [2]; 1.4 in data set [3]; 0.947 in data set [4]; 1.63 in data set [5]; 1.79 in data set [6].
As for “CUAGUUCAAACAAUGGGUCUG [Fam1A.1 aminoacylation ribozyme variant]”, the self-aminoacylation in data set [1] was 0.792; in data set [2], 1.14; in data set [3], 1.1; in data set [4], 0.851; in data set [5] it was 1.08; in data set [6], 0.678.

The values are drawn from the supplement of paper PMC9233669.
